# Laboratory results published in patent publication US20090088402A1 (SUNGKYUNKWAN UNIVERSITY FOUNDATION FOR CORPORATE …, published 2009).
# Target: T1, full length human p53 fused in frame with the B42D activation domain (pJG4-5) (human, UniProt P04637 1-393)
# T1 construct: mature; Yeast two hybrid prey
# Assay: yeast two hybrid, X-gal colony colour
# Excerpt: To determine whether protein-protein interactions are involved, and which part of Msx1 are involved if any, in the stabilization of p53 leading to apoptosis of cells by Msx1, yeast two hybrid assays were used as previously described (Gyuris et al., Cell 75: 791-803, 1993; Part et al., ibid).
# Briefly, to this end, four Msx1 constructs (FIG. 3A top) were made as described in Example 1. DNA fragments encoding full length human HPV-E6 and p53 proteins were isolated by PCR from the cDNA library derived from HeLa cells (Clontech) and cloned into pJG4-5 at unique EcoRI and XhoI sites for in-frame fusion of each cDNA with B42D activation domain. The truncated constructs of Msx1 as shown in FIG. 3A were obtained by PCR using specific set of primers designed for each deletion product and pCB6+/Msx1 as a template. Each amplified Msx1 fragment was then inserted into a pGlida vector (Clontech) using BamHI and XhoI sites to express it as a fusion protein with LexA. Each pGlida and pJG4-5 fusion construct prepared was then introduced into the testing yeast strain EGY48. […] The binding activity between HPV-E6 and Msx1 was also determined quantitatively by the relative expression level of β-galactosidase as described (Rho, S B et al., FEBS Lett 557: 57-63, 2004; Rho, S B et al., PNAS USA 93:10128-33,1996).
binder,measurement,value
"Msx1 construct lacking homeodomain (1-165) expressed as a fusion protein with LexA (other, Yeast two hybrid bait; not shown: LexA as encoded by the pGlida vector (Clontech)) MTSLPLGVKVEDSAFGKPAGGGAGQAPSAAAATAAAMGADEEGAKPKVSPSLLPFSVEALMADHRKPGAKESALAPSEGVQAAGGSAQPLGVPPGSLGAPDAPSSPRPLGHFSVGGLLKLPEDALVKAESPEKPERTPWMQSPRFSPPPARRLSPPACTLRKHKT",binding result,no binding
